From patent US20190185537A1 (AstraZeneca / MedImmune, published 2019)
Numbered stars: 1 amine (or outer) side, 2 acyl side, 3 side chain; on linkers, the order of the positions; unused ones are H or OH. Side chains are listed from the residue outwards. Ends that are not written are not given here. * marks the point of attachment. γGlu = O=C(O)[C@H](CCC(=O)[*:2])N[*:1]; Palmitoyl = CCCCCCCCCCCCCCCC(=O)*; Ahx = NCCCCCC(=O)O; βAla = NCCC(=O)O

T1: human glucose-dependent insulinotropic peptide (gastric inhibitory polypeptide) receptor (human) (UniProt P48546)
T1 sequence (looked up): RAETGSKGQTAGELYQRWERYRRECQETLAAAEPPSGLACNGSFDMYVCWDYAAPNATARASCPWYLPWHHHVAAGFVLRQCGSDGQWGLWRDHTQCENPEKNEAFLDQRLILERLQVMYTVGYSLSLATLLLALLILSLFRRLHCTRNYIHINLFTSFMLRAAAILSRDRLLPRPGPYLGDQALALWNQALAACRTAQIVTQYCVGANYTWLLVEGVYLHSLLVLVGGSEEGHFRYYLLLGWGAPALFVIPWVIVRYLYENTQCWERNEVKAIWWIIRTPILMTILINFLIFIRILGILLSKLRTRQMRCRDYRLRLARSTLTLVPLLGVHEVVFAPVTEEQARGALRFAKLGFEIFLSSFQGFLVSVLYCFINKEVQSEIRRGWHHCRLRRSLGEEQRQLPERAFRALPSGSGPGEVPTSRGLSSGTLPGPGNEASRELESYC


Assays:
Assay in all cases: cell-based or functional assay
human glucagon receptor = human glucagon receptor (human, UniProt P47871 26-477)
human GLP-1 receptor = human GLP-1 receptor (human, UniProt P43220 24-463)
[1] = biological target: T1, human glucose-dependent insulinotropic peptide (gastric inhibitory polypeptide) receptor (human)

human GLP-1 receptor, sequence (P43220 24-463): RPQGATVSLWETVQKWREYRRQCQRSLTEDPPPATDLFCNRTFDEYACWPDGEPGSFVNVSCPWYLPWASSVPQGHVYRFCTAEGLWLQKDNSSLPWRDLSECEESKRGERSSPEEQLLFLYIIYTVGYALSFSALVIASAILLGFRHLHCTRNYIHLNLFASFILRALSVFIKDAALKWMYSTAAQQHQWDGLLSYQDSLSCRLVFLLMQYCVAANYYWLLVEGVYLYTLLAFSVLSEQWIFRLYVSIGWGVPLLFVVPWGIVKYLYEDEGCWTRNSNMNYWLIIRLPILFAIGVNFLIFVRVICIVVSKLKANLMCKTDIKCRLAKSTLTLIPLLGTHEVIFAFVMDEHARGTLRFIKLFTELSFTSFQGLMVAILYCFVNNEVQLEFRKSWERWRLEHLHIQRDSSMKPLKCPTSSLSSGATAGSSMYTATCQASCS
human glucagon receptor, sequence (P47871 26-477): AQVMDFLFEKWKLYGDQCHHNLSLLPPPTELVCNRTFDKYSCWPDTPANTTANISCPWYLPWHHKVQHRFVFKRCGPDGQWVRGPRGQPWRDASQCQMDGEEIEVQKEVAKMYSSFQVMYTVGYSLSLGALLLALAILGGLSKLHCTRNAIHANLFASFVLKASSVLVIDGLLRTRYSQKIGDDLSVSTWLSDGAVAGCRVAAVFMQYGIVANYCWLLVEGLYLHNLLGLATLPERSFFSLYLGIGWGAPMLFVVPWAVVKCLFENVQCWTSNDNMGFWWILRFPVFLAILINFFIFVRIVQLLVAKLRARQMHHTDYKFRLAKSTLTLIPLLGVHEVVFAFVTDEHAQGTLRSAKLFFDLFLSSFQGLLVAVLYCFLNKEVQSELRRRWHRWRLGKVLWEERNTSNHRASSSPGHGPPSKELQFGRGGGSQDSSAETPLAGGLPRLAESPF

Row | Binder | cAMP EC50 (assay 1) (human glucagon receptor) [pM] | cAMP EC50 (assay 1) (human GLP-1 receptor) [pM] | cAMP EC50 (assay 1) [1] [pM]
1 | HSQGTFTSDYSEYLDSK([Ahx-Palmitoyl])RARDFVEWLENT-NH2 (not fully specified) [g825] | 3.67 | 19.1 | 86700
2 | HSQGTFTSDYSEYLDSK([Ahx-Palmitoyl])RAQDFVQWLERGG-NH2 (N-terminus assumed; SMILES CCCCCCCCCCCCCCCC(=O)NCCCCCC(=O)NCCCC[C@H](NC(=O)[C@H](CO)NC(=O)[C@H](CC(=O)O)NC(=O)[C@H](CC(C)C)NC(=O)[C@H](Cc1ccc(O)cc1)NC(=O)[C@H](CCC(=O)O)NC(=O)[C@H](CO)NC(=O)[C@H](Cc1ccc(O)cc1)NC(=O)[C@H](CC(=O)O)NC(=O)[C@H](CO)NC(=O)[C@@H](NC(=O)[C@H](Cc1ccccc1)NC(=O)[C@@H](NC(=O)CNC(=O)[C@H](CCC(N)=O)NC(=O)[C@H](CO)NC(=O)[C@@H](N)Cc1c[nH]cn1)[C@@H](C)O)[C@@H](C)O)C(=O)N[C@@H](CCCNC(=N)N)C(=O)N[C@@H](C)C(=O)N[C@@H](CCC(N)=O)C(=O)N[C@@H](CC(=O)O)C(=O)N[C@@H](Cc1ccccc1)C(=O)N[C@H](C(=O)N[C@@H](CCC(N)=O)C(=O)N[C@@H](Cc1c[nH]c2ccccc12)C(=O)N[C@@H](CC(C)C)C(=O)N[C@@H](CCC(=O)O)C(=O)N[C@@H](CCCNC(=N)N)C(=O)NCC(=O)NCC(N)=O)C(C)C) [g614] | 3.65 | 9.31 | 99300
3 | HSQGTFTSDYSEYLDSK([Ahx-Palmitoyl])RARDFVAWLEAGG-NH2 (N-terminus assumed; SMILES CCCCCCCCCCCCCCCC(=O)NCCCCCC(=O)NCCCC[C@H](NC(=O)[C@H](CO)NC(=O)[C@H](CC(=O)O)NC(=O)[C@H](CC(C)C)NC(=O)[C@H](Cc1ccc(O)cc1)NC(=O)[C@H](CCC(=O)O)NC(=O)[C@H](CO)NC(=O)[C@H](Cc1ccc(O)cc1)NC(=O)[C@H](CC(=O)O)NC(=O)[C@H](CO)NC(=O)[C@@H](NC(=O)[C@H](Cc1ccccc1)NC(=O)[C@@H](NC(=O)CNC(=O)[C@H](CCC(N)=O)NC(=O)[C@H](CO)NC(=O)[C@@H](N)Cc1c[nH]cn1)[C@@H](C)O)[C@@H](C)O)C(=O)N[C@@H](CCCNC(=N)N)C(=O)N[C@@H](C)C(=O)N[C@@H](CCCNC(=N)N)C(=O)N[C@@H](CC(=O)O)C(=O)N[C@@H](Cc1ccccc1)C(=O)N[C@H](C(=O)N[C@@H](C)C(=O)N[C@@H](Cc1c[nH]c2ccccc12)C(=O)N[C@@H](CC(C)C)C(=O)N[C@@H](CCC(=O)O)C(=O)N[C@@H](C)C(=O)NCC(=O)NCC(N)=O)C(C)C) [g838] | 5.68 | 23.7 | 84300
4 | HSQGTFTSDYSEYLDSK([γGlu-Palmitoyl])RARDFVAWLEAGG-NH2 (N-terminus assumed; SMILES CCCCCCCCCCCCCCCC(=O)N[C@@H](CCC(=O)NCCCC[C@H](NC(=O)[C@H](CO)NC(=O)[C@H](CC(=O)O)NC(=O)[C@H](CC(C)C)NC(=O)[C@H](Cc1ccc(O)cc1)NC(=O)[C@H](CCC(=O)O)NC(=O)[C@H](CO)NC(=O)[C@H](Cc1ccc(O)cc1)NC(=O)[C@H](CC(=O)O)NC(=O)[C@H](CO)NC(=O)[C@@H](NC(=O)[C@H](Cc1ccccc1)NC(=O)[C@@H](NC(=O)CNC(=O)[C@H](CCC(N)=O)NC(=O)[C@H](CO)NC(=O)[C@@H](N)Cc1c[nH]cn1)[C@@H](C)O)[C@@H](C)O)C(=O)N[C@@H](CCCNC(=N)N)C(=O)N[C@@H](C)C(=O)N[C@@H](CCCNC(=N)N)C(=O)N[C@@H](CC(=O)O)C(=O)N[C@@H](Cc1ccccc1)C(=O)N[C@H](C(=O)N[C@@H](C)C(=O)N[C@@H](Cc1c[nH]c2ccccc12)C(=O)N[C@@H](CC(C)C)C(=O)N[C@@H](CCC(=O)O)C(=O)N[C@@H](C)C(=O)NCC(=O)NCC(N)=O)C(C)C)C(=O)O) [g837] | 213 | 467 | 114000
5 | HGQGTFTSDYSKYLDSK([γGlu-Palmitoyl])RAQDFVQWLERGG-NH2 (N-terminus assumed; SMILES CCCCCCCCCCCCCCCC(=O)N[C@@H](CCC(=O)NCCCC[C@H](NC(=O)[C@H](CO)NC(=O)[C@H](CC(=O)O)NC(=O)[C@H](CC(C)C)NC(=O)[C@H](Cc1ccc(O)cc1)NC(=O)[C@H](CCCCN)NC(=O)[C@H](CO)NC(=O)[C@H](Cc1ccc(O)cc1)NC(=O)[C@H](CC(=O)O)NC(=O)[C@H](CO)NC(=O)[C@@H](NC(=O)[C@H](Cc1ccccc1)NC(=O)[C@@H](NC(=O)CNC(=O)[C@H](CCC(N)=O)NC(=O)CNC(=O)[C@@H](N)Cc1c[nH]cn1)[C@@H](C)O)[C@@H](C)O)C(=O)N[C@@H](CCCNC(=N)N)C(=O)N[C@@H](C)C(=O)N[C@@H](CCC(N)=O)C(=O)N[C@@H](CC(=O)O)C(=O)N[C@@H](Cc1ccccc1)C(=O)N[C@H](C(=O)N[C@@H](CCC(N)=O)C(=O)N[C@@H](Cc1c[nH]c2ccccc12)C(=O)N[C@@H](CC(C)C)C(=O)N[C@@H](CCC(=O)O)C(=O)N[C@@H](CCCNC(=N)N)C(=O)NCC(=O)NCC(N)=O)C(C)C)C(=O)O) [g588] | 72.3 | 110 | 98000

Continued, values first:

Row | cAMP EC50 (assay 1) (human glucagon receptor) [pM] | cAMP EC50 (assay 1) (human GLP-1 receptor) [pM] | cAMP EC50 (assay 1) [1] [pM] | Binder
6 | 91.1 | 42.4 | 846000 | HSQGTFTSDYSEYLDSK([βAla-Palmitoyl])RARDFVAWLEAGG-NH2 (N-terminus assumed; SMILES CCCCCCCCCCCCCCCC(=O)NCCC(=O)NCCCC[C@H](NC(=O)[C@H](CO)NC(=O)[C@H](CC(=O)O)NC(=O)[C@H](CC(C)C)NC(=O)[C@H](Cc1ccc(O)cc1)NC(=O)[C@H](CCC(=O)O)NC(=O)[C@H](CO)NC(=O)[C@H](Cc1ccc(O)cc1)NC(=O)[C@H](CC(=O)O)NC(=O)[C@H](CO)NC(=O)[C@@H](NC(=O)[C@H](Cc1ccccc1)NC(=O)[C@@H](NC(=O)CNC(=O)[C@H](CCC(N)=O)NC(=O)[C@H](CO)NC(=O)[C@@H](N)Cc1c[nH]cn1)[C@@H](C)O)[C@@H](C)O)C(=O)N[C@@H](CCCNC(=N)N)C(=O)N[C@@H](C)C(=O)N[C@@H](CCCNC(=N)N)C(=O)N[C@@H](CC(=O)O)C(=O)N[C@@H](Cc1ccccc1)C(=O)N[C@H](C(=O)N[C@@H](C)C(=O)N[C@@H](Cc1c[nH]c2ccccc12)C(=O)N[C@@H](CC(C)C)C(=O)N[C@@H](CCC(=O)O)C(=O)N[C@@H](C)C(=O)NCC(=O)NCC(N)=O)C(C)C) [g783]
7 | 2.34 | 18 | 103000 | HSQGTFTSDYSKYLDSK([βAla-Palmitoyl])RARDFVAWLEAGG-NH2 (N-terminus assumed; SMILES CCCCCCCCCCCCCCCC(=O)NCCC(=O)NCCCC[C@H](NC(=O)[C@H](CO)NC(=O)[C@H](CC(=O)O)NC(=O)[C@H](CC(C)C)NC(=O)[C@H](Cc1ccc(O)cc1)NC(=O)[C@H](CCCCN)NC(=O)[C@H](CO)NC(=O)[C@H](Cc1ccc(O)cc1)NC(=O)[C@H](CC(=O)O)NC(=O)[C@H](CO)NC(=O)[C@@H](NC(=O)[C@H](Cc1ccccc1)NC(=O)[C@@H](NC(=O)CNC(=O)[C@H](CCC(N)=O)NC(=O)[C@H](CO)NC(=O)[C@@H](N)Cc1c[nH]cn1)[C@@H](C)O)[C@@H](C)O)C(=O)N[C@@H](CCCNC(=N)N)C(=O)N[C@@H](C)C(=O)N[C@@H](CCCNC(=N)N)C(=O)N[C@@H](CC(=O)O)C(=O)N[C@@H](Cc1ccccc1)C(=O)N[C@H](C(=O)N[C@@H](C)C(=O)N[C@@H](Cc1c[nH]c2ccccc12)C(=O)N[C@@H](CC(C)C)C(=O)N[C@@H](CCC(=O)O)C(=O)N[C@@H](C)C(=O)NCC(=O)NCC(N)=O)C(C)C) [g819]
8 | 164 | 15.1 | 146000 | HGQGTFTSDYSEYLDSK([Ahx-Palmitoyl])RARDFVAWLERGG-NH2 (N-terminus assumed; SMILES CCCCCCCCCCCCCCCC(=O)NCCCCCC(=O)NCCCC[C@H](NC(=O)[C@H](CO)NC(=O)[C@H](CC(=O)O)NC(=O)[C@H](CC(C)C)NC(=O)[C@H](Cc1ccc(O)cc1)NC(=O)[C@H](CCC(=O)O)NC(=O)[C@H](CO)NC(=O)[C@H](Cc1ccc(O)cc1)NC(=O)[C@H](CC(=O)O)NC(=O)[C@H](CO)NC(=O)[C@@H](NC(=O)[C@H](Cc1ccccc1)NC(=O)[C@@H](NC(=O)CNC(=O)[C@H](CCC(N)=O)NC(=O)CNC(=O)[C@@H](N)Cc1c[nH]cn1)[C@@H](C)O)[C@@H](C)O)C(=O)N[C@@H](CCCNC(=N)N)C(=O)N[C@@H](C)C(=O)N[C@@H](CCCNC(=N)N)C(=O)N[C@@H](CC(=O)O)C(=O)N[C@@H](Cc1ccccc1)C(=O)N[C@H](C(=O)N[C@@H](C)C(=O)N[C@@H](Cc1c[nH]c2ccccc12)C(=O)N[C@@H](CC(C)C)C(=O)N[C@@H](CCC(=O)O)C(=O)N[C@@H](CCCNC(=N)N)C(=O)NCC(=O)NCC(N)=O)C(C)C) [g684]
